In article PMC11665464:

Tests used:
[1] = molecular target: ALYREF-ΔNC, with the N- and C-terminal UAP56-binding motifs (UBMs) deleted (human) (UniProt Q86V81)
[2] = molecular target: ALYREF-ΔNC, with the N- and C-terminal UAP56-binding motifs (UBMs) deleted (human) (UniProt Q86V81); assay: pull-down; Nickel-NTA affinity pull-down: 2 ug His6-tagged ALYREF or variant with 4 ug UAP56 in 30 ul K buffer (20 mM KH2PO4 pH 7.4, 10% glycerol, 0.5 mM EDTA, 0.01% Igepal, 1 mM DTT) with 200 mM KCl and 15 mM imidazole, 30 min at 4 °C; captured on Ni-NTA resin, eluted with 2% SDS; SDS-PAGE, Coomassie stain

UAP56, sequence (Q13838 whole entry): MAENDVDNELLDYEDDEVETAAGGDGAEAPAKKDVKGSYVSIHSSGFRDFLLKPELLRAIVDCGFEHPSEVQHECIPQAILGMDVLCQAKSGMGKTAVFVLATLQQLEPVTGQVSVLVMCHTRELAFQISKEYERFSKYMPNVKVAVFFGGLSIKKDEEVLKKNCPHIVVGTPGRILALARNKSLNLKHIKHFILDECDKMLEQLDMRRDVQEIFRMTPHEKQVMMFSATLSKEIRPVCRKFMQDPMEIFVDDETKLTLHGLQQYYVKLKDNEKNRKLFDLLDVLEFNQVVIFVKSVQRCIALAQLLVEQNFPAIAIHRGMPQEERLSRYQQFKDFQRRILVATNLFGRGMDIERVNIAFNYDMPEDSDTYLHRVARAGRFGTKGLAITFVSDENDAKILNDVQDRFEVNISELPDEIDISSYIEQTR

- time course (5, 10, 15 min) of R-loop dissociation by 60 nM UAP56 with 6 nM ALYREF-ΔNC; fold increase at 5 min [1]: 12 fold
- percent of the ability to interact with UAP56 lost, against WT ALYREF [2]: 80%
Substance: UAP56 (from UniProt Q13838 1-428) (enzyme)
